# Square brackets hold non-standard residues; d marks the D form. Ends that are not written are not given here. Hyp = O=C(O)[C@@H]1C[C@@H](O)CN1
# Legend:
# [1] = molecular target: T1, extracellular domain of A. thaliana TDR (residues 30-642) (Arabidopsis thaliana, UniProt Q9FII5 30-642, N-glycosylated at N111, N356, N378, N471 and N525 (one GlcNAc visible on each in the structures)); experiment: crystal structure; ecdTDR 5 mg/ml (42 μM) mixed with 420 μM TDIF, 4°C for 1 hour; crystals at 18°C in 200 mM MgSO4, 20% PEG 3350; 2.75 Å; conditions: both partners purified
# T1 construct: TDR/PXY (TDIF RECEPTOR / PHLOEM INTERCALATED WITH XYLEM) of A. thaliana, extracellular domain, residues 30-642; the structure models hold residues 40-625; also called ecdTDR; TDR-ECD; source: High Five insect cells (baculovirus), secreted, purified (Ni-NTA, size-exclusion chromatography)
# T1 sequence (looked up): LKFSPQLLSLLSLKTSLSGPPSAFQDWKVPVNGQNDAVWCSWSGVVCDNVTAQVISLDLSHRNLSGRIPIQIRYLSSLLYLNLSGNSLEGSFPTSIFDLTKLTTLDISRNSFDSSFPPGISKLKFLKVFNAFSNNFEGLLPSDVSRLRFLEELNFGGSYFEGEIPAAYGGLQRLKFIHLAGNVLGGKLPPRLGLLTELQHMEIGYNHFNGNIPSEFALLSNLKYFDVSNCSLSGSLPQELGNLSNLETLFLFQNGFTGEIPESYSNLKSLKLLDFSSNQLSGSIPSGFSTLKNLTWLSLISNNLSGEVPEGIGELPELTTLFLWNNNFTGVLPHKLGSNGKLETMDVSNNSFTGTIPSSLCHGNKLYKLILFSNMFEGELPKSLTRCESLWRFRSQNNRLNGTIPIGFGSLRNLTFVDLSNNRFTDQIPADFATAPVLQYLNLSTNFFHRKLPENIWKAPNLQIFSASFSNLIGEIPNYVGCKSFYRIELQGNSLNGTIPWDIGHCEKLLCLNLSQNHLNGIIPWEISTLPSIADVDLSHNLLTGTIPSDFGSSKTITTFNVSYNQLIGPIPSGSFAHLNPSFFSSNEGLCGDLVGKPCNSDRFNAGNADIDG
# ecdTDR S305A mutant = molecular target: T2, ecdTDR S305A mutant (Arabidopsis thaliana, UniProt Q9FII5 30-642, S305A); experiment: ITC
# T2 sequence: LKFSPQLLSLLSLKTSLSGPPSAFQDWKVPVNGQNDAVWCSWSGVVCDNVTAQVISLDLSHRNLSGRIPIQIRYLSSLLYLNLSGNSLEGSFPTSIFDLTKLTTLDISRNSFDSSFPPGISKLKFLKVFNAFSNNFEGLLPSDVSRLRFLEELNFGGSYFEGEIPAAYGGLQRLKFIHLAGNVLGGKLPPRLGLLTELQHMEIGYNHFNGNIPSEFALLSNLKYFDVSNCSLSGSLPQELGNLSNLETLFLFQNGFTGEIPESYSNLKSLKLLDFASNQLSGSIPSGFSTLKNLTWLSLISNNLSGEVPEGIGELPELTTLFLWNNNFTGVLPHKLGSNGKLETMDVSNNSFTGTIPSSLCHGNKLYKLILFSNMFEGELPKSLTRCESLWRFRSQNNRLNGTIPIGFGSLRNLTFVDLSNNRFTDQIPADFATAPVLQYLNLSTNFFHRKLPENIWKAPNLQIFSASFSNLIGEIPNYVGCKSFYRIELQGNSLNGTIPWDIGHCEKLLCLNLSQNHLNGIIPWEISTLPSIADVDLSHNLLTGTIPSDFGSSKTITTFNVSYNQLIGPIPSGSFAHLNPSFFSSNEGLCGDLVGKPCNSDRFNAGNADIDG
# ecdTDR W353A mutant = molecular target: T3, ecdTDR W353A mutant (Arabidopsis thaliana, UniProt Q9FII5 30-642, W353A); experiment: ITC
# T3 sequence: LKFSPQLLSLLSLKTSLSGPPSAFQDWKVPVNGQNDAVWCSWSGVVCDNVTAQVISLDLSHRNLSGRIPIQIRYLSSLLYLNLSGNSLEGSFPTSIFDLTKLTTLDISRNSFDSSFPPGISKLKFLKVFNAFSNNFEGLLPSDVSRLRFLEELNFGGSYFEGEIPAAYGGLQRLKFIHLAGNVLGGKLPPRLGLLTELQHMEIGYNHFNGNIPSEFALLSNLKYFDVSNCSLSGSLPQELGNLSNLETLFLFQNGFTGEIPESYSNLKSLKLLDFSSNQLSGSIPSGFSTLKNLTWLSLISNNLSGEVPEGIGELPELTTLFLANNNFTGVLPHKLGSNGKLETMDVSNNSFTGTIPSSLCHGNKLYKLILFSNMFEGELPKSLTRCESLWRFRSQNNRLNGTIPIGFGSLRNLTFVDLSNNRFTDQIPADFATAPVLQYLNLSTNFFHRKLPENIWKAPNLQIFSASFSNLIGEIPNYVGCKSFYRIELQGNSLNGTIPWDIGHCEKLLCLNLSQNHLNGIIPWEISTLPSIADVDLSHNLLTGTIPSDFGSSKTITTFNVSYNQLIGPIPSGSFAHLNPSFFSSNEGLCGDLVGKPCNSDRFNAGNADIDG
# ecdTDR R138A mutant = molecular target: T4, ecdTDR R138A mutant (Arabidopsis thaliana, UniProt Q9FII5 30-642, R138A); experiment: ITC; 0.5–1 mM peptide titrated into 10–40 μM ecdTDR; 25°C; 10 mM sodium citrate, 100 mM NaCl, pH 5.5; fitted to one set of binding sites; MicroCal Auto-iTC200; conditions: both partners purified
# T4 construct: TDR/PXY of A. thaliana, extracellular domain, residues 30-642; source: High Five insect cells (baculovirus), secreted, purified as the wild type (Ni-NTA, size-exclusion chromatography)
# T4 sequence (looked up): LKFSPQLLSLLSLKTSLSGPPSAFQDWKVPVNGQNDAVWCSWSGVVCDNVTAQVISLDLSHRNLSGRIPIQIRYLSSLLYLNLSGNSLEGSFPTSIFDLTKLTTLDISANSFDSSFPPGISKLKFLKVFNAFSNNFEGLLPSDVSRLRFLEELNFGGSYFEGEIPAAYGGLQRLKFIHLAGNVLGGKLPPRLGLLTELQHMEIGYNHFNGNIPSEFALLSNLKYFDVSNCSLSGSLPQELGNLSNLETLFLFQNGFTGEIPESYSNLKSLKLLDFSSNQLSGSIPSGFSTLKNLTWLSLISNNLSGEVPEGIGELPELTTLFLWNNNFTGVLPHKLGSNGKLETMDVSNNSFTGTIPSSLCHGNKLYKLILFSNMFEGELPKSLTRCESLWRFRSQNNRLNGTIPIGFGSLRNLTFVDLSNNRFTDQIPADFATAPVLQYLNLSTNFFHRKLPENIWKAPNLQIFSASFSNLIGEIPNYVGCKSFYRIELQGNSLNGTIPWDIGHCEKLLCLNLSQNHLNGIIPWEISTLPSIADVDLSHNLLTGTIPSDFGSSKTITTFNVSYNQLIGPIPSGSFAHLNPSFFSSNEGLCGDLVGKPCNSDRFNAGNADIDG
binder,measurement,setting,value
"HEV[Hyp]SG[Hyp]NPISN (TDIF, the 12-residue CLE peptide processed from CLE41 and CLE44 of A. thaliana; printed as HEV(Hyp)SG(Hyp)NPISN; numbers count on: the 12-residue peptide; CLE44 encodes the same peptide; also called wild type TDIF; wtTDIF; source: synthetic peptide (peptide 2.0)) [Tracheary Element Differentiation Inhibitory Factor (TDIF) peptide]",binding result,[1],binds
same,Kd,ecdTDR S305A mutant,455 nM
same,Kd,ecdTDR W353A mutant,862 nM
same,binding result,ecdTDR R138A mutant,binds
